In patent US20220127365A1 (DREN BIO, published 2022):

Key:
cynomolgus CD94 [1] = target: T1, cynomolgus CD94 (cynomolgus monkey); experiment: flow cytometry titration of Alexa Fluor 647 conjugate (50 nM to 0.02 nM) on primary cynomolgus NK cells
T1 construct: whole, on cells; The construct expressed in HEK293 cells is not described further; also called cyno CD94; cynomolgus monkey CD94
Protocol: (§1) The ATX-130 antibody was produced in Expi-CHO cells cultured in the presence of kifunensine, a potent inhibitor of the mannosidase I enzyme, which is used to produce ATX-130-KIF mimicking non-fucosylated antibody. PBMCs of healthy donors were used for antibody staining ATX-130 antibody was titrated from 50 nM to 0.02 nM. Secondary anti-human antibody labeled with Alexa Fluor 647 was used to detect binding on CD3−CD56 bright NK cells. ATX-130-KIF antibody conjugated with Alexa Fluor 647 was titrated from 50 nM to 0.02 nM. T-LGLL cells were identified using CD3+CD16+ gating, while CLPD-NK cells were identified using CD3−CD16+ gating strategy. Titration curves and EC50 were generated using Graphpad Prism. […] Fluorescently labeled human IgG1-KIF isotype-KIF antibody was used as control. Arrows indicate ATX-130 and Human IgG1-KIF data points.
(§2) The affinity of the antibody clones was assessed by flow cytometry analysis. ATX-130-KIF mimicking non-fucosylated antibody was produced by culturing Expi-CHO cells cultured in the presence of kifunensine, a potent inhibitor of the mannosidase I enzyme. […] Thus, ATX-130 and ATX-130-KIF have similar binding affinity on primary human NK cells, cynomolgus NK cells, CLPD-NK cells, and T-LGLL cells.

human CD94 [2] = target: T2, human CD94 (human, UniProt Q13241 1-179); experiment: flow cytometry titration of Alexa Fluor 647 conjugate on T-LGLL patient cells (CD3+CD16+); T-LGLL cells
T2 construct: whole, on cells; Endogenous CD94 on primary cells (healthy-donor PBMC NK cells, CLPD-NK and T-LGLL patient cells), where it pairs with NKG2A or NKG2C; also called KLRD1; Natural killer cells antigen CD94
T2 sequence (looked up): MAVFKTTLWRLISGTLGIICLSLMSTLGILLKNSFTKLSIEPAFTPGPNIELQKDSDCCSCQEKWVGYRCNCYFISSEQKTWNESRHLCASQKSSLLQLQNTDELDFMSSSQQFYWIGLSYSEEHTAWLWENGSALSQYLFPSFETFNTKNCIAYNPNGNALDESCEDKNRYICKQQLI
Protocol: as §1, §2

human CD94 [3] = target: T2, human CD94; experiment: flow cytometry titration of Alexa Fluor 647 conjugate on CLPD-NK patient cells (CD3-CD16+); CLPD-NK cells
Protocol: as §1, §2

cynomolgus CD94 [4] = target: T1, cynomolgus CD94; experiment: cell-based or functional assay
human CD94 [5] = target: T2, human CD94; experiment: cell-based or functional assay
human CD94 [6] = target: T2, human CD94; experiment: HLA-E tetramer blocking on healthy-donor PBMCs, flow cytometry; competitor HLA-E tetramer
Protocol: (§3) Healthy donor PBMCs were seeded in 96-well plates at a density of 100,000 cells per well, incubated with human Fc block (Biolegend) and cell viability dye (Thermo Fisher) for 30 minutes on ice and protected from light. The cells were washed once with FACS buffer (PBS with 2% IgG low FBS). anti-CD94 antibodies at EC80 concentrations were incubated with cells for 30 minutes on ice and protected from light. After incubation with the anti-CD94 antibodies, the cells were washed and incubated with HLA-E tetramer PE (Creative Biolabs), anti-CD3 pacific blue-labelled, and anti-CD56 FITC-labelled antibodies (Biolegend) for 30 minutes on ice and protected from light. The cells then received a final wash in FACS buffer before quantification on the Cytoflex (Beckman Coulter). All data acquisition and fluorescence compensation were performed using CytoFlex (Beckman Coulter, Atlanta, Ga.). Data analysis was performed using FlowJo software. NK cells were identified through gating on lymphocytes on the forward and side scatter, followed by doublet and dead cell exclusion, and gated on the CD3−CD56+ population. HLA-E expression was then quantified on the CD3−CD56+NK cell population. Percent blocking was calculated as 100−((percent HLA-E positive for anti-CD94 antibody)/(percent HLA-E positive for isotype)*100).
Healthy donor PBMCs were incubated with anti-CD94 antibodies. PE labeled HLA-E tetramer was then incubated with cells and antibody mixture and detected by flow cytometry.
Percent blocking was calculated as 100−((percent HLA-E positive for anti-CD94 antibody)/(percent HLA-E positive for isotype)*100). If an antibody blocked more than 20% of HLA-E binding, it was considered a ligand-blocking antibody.

[7] = target: T3, CD94 homodimer on BaF3 cells (UniProt Q13241 1-179); experiment: flow cytometry titration (50 nM to 0.02 nM) on BaF3 cells, anti-human AF647 secondary antibody; BaF3 cells overexpressing CD94 homodimer
T3 construct: whole, on cells
T3 sequence (looked up): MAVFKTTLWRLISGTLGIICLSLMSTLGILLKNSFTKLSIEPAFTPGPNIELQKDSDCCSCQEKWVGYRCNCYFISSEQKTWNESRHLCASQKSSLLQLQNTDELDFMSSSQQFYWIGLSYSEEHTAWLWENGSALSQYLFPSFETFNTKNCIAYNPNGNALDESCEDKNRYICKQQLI
Protocol: (§4) BaF3 cells overexpressing CD94 homodimer (top panel), CD94/NKG2A heterodimer (lower left panel), and CD94/NKG2C heterodimer (lower right panel) were incubated with unconjugated ATX-130 antibody in a dilution series from 50 nM to 0.02 nM. Secondary anti-human antibody labeled with Alexa Fluor 647 was used to detect ATX-130 binding on cells.
(§5) The affinity of the antibody clone ATX-130 on CD94 homodimer and heterodimer was also assessed by flow cytometry analysis.

[8] = target: T4, CD94/NKG2A heterodimer on BaF3 cells (UniProt Q13241 1-179; P26715 1-233, limits assumed); experiment: flow cytometry titration (50 nM to 0.02 nM) on BaF3 cells, anti-human AF647 secondary antibody; BaF3 cells overexpressing CD94/NKG2A heterodimer
T4 construct: whole, on cells
T4 sequence (P26715 whole entry, one chain of several): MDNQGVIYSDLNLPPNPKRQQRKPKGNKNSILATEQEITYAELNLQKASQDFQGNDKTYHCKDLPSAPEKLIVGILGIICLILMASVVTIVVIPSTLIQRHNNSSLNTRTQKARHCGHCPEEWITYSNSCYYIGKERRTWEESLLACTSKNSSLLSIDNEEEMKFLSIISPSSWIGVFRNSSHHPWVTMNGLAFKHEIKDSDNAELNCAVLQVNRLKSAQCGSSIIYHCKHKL
Protocol: as §4, §5

cynomolgus CD94 [9] = target: T1, cynomolgus CD94; experiment: flow cytometry on HEK293 cells overexpressing cynomolgus CD94; unconjugated antibody in a dilution series, Alexa Fluor 647 anti-human secondary antibody
Protocol: For human NK cell binding, PBMCs were freshly isolated from healthy donors and incubated with unconjugated antibodies in a dilution series from 100 nM to 0.046 nM. Secondary anti-human antibody labeled with Alexa Fluor 647 was used to detect binding on CD3−CD56bright NK cells. For cynomolgus CD94 binding, HEK293 cells overexpressing cynomolgus CD94 were incubated with unconjugated antibodies in a dilution series from 100 nM to 0.046 nM. Secondary anti-human antibody labeled with Alexa Fluor 647 was used to detect binding on the cells.

human CD94 [10] = target: T2, human CD94; experiment: flow cytometry titration (100 nM to 0.046 nM) on healthy-donor PBMCs, CD3-CD56bright NK cells; column 'Affinity on human NK cells (nM)'
[11] = target: T5, CD94/NKG2C heterodimer on BaF3 cells (UniProt Q13241 1-179; P26717 1-231, limits assumed); experiment: flow cytometry titration (50 nM to 0.02 nM) on BaF3 cells, anti-human AF647 secondary antibody; BaF3 cells overexpressing CD94/NKG2C heterodimer
T5 construct: whole, on cells
T5 sequence (P26717 whole entry, one chain of several): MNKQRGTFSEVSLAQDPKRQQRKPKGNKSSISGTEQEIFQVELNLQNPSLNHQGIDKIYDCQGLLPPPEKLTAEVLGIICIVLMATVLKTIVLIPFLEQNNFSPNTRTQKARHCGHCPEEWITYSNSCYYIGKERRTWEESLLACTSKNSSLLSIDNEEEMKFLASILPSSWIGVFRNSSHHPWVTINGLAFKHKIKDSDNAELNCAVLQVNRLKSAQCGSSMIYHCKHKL
Protocol: as §4, §5

human CD94 [12] = target: T2, human CD94; experiment: competition assay, flow cytometry on NK cells of healthy donor PBMCs; 18H3-AF647 titrated in the presence of 1E4 at 11 µg/ml
Protocol: (§6) FIGS. 5A-5B show the results of competition assays performed for 18H3 anti-CD94 antibody evaluation. For all competition assays, 18H3 was incubated with PBMCs at a concentration of 1.3 μg/ml. […] Commercially available anti-CD94 antibodies were titrated and incubated with PBMCs concurrently with 18H3. […] To test competition between 18H3 and 1M4/1E4, 1M4 and 1E4 were incubated with cells at concentrations of 8.5 μg/ml and 11 μg/ml, respectively. 18H3 was fluorescently tagged with AF647 and incubated with cells concurrently with […].
(§7) Healthy donor PBMCs were seeded in 96-well plates at a density of 100,000 cells per well, incubated with human Fc block (Biolegend) and cell viability dye (Thermo Fisher) for 30 minutes on ice and protected from light. The cells were washed once with FACS buffer (PBS with 2% IgG low FBS). Unconjugated anti-CD94 antibodies at EC80 concentrations, CD3 FITC and CD56 PE antibodies, and APC-labeled anti-CD94 antibodies were incubated with cells for 30 minutes on ice and protected from light. The cells then received a final wash in FACS buffer before quantification on the Cytoflex (Beckman Coulter). All data acquisition and fluorescence compensation were performed using CytoFlex (Beckman Coulter, Atlanta, Ga.). Data analysis was performed using FlowJo software. […] Anti-CD94 APC was then quantified on the CD3−CD56+NK cell population. […]

human CD94 [13] = target: T2, human CD94; experiment: table column 'HLA-E blocking'; flow cytometry on NK cells of healthy donor PBMCs, antibody at saturating concentration, blocked ligand PE labeled HLA-E tetramer; percent blocking = 100-((percent HLA-E positive with antibody)/(percent HLA-E positive with isotype)*100)
Protocol: FIGS. 4A & 4B show the results of HLA-E tetramer blocking assays performed with anti-CD94 and commercially available anti-CD94 antibodies using flow cytometry. Healthy donor PBMCs were incubated with anti-CD94 antibodies. PE labeled HLA-E tetramer was then incubated with the cell and antibody mixture, and detected using flow cytometry. For HP-3B1, 131412, 12K45, DX22, 1M4 and 1E4, 2.5 μl of HLA-E tetramer reagent was used, while 5 μl was used for 18H3 and HP-3D9. Saturating concentrations of each antibody was used in this assay. The percent blocking was calculated as 100−((percent HLA-E positive for anti-CD94 antibody)/(percent HLA-E positive for isotype)*100).
as §3

human CD94 [14] = target: T2, human CD94; experiment: flow cytometry titration (100 nM to 0.046 nM) on healthy-donor PBMCs, gated NK cells; EC50 from GraphPad Prism
Protocol: Peripheral blood monocuclear cells (PBMCs) of healthy donor HD-40 were used for antibody staining. 18H3 antibody was titrated from 100 nM to 0.046 nM in 1:3 dilutions and incubated with PBMCs. CD3 and CD56 antibodies were used to identify NK cells on the flow scatter. 18H3 antibody binding on […] and CD56 bright NK cells was used to assess affinity of 18H3. Titration curves and EC50 were generated using Graphpad Prism. […] Human IgG1 isotype control with secondary antibody (hIgG1) and goat (Fab)2 fragment anti-human Fcy-specific secondary antibody AF647 only (2ndary Ab) were used as controls.
Healthy donor PBMCs were seeded in 96 well plates at a density of 100,000 cells per well, incubated with human Fc block (Biolegend) and cell viability dye (Thermo Fisher) for 30 minutes on ice and protected from light. […] After incubation, the cells received a final wash in FACS buffer before quantification on the Cytoflex (Beckman Coulter). All data acquisition and fluorescence compensation were performed using CytoFlex (Beckman Coulter, Atlanta, Ga.). […] CD94 expression was then quantified on the CD3−CD56+NK cell population. […]
The affinity of the antibody clones was also assessed by flow cytometry analysis.

human CD94 [15] = target: T2, human CD94; experiment: competition assay, flow cytometry on NK cells of healthy donor PBMCs; 18H3-AF647 titrated, concurrently Mouse IgG1 control (or 1M4 at 8.5 µg/ml)
Protocol: as §6, §7

B1: ATX-130-KIF (antibody, human IgG1, V domains shown)
VH: EVQLLESGGGLVKPGGSLRLSCAASGFTFSSYSMNWVRQAPGKGLEWVSSISTSSNFIYYADSVKGRFTISRDNAKNSLYLQMNSLRAEDTAVYYCARDLGRYYYYMDVWGKGTTVTVSS
VL: DIVMTQSPSSLSASVGDRVTITCRASQSISSWLAWYQQKPGKAPKSLIYAASSLQSGVPSKFSGSGSGTDFTLTISSLQPEDVATYYCQKYNSAPFTFGPGTKVDIK
notes: also called KIF-treated ATX-130; ATX-130-KIF Alexa Fluor 647
**Q.** For B1, which EC50 (cynomolgus CD94 [1]) is on record?
**A.** 1 nM

**Q.** And the EC50 (human CD94 [2])?
**A.** 3 nM

**Q.** What about the EC50 (human CD94 [3]) of the same binder?
**A.** 1.4 nM

**Q.** And the “IC50 of cynomolgus NK cell depletion, ADCC assay with cynomolgus PBMCs” value (cynomolgus CD94 [4])?
**A.** 0.3 ng/mL

**Q.** And the “IC50 of CLPD-NK leukemic cell depletion, ADCC assay with patient PBMCs” value (human CD94 [5])?
**A.** 0.6 ng/mL

**Q.** And the “IC50 of T-LGLL leukemic cell depletion, ADCC assay with patient PBMCs” value (human CD94 [5])?
**A.** 0.2 ng/mL

**Q.** What about the “IC50 of human NK cell depletion, ADCC assay with healthy donor PBMCs” value (human CD94 [5]) of the same binder?
**A.** 0.8 ng/mL

B2: anti-CD94 antibody ATX-130 (antibody, human IgG1, V domains shown)
VH: EVQLLESGGGLVKPGGSLRLSCAASGFTFSSYSMNWVRQAPGKGLEWVSSISTSSNFIYYADSVKGRFTISRDNAKNSLYLQMNSLRAEDTAVYYCARDLGRYYYYMDVWGKGTTVTVSS
VL: DIVMTQSPSSLSASVGDRVTITCRASQSISSWLAWYQQKPGKAPKSLIYAASSLQSGVPSKFSGSGSGTDFTLTISSLQPEDVATYYCQKYNSAPFTFGPGTKVDIK
notes: also called hATX-130
**Q.** For B2, which “percent HLA-E blocking” value (human CD94 [6]) is on record?
**A.** 0%

**Q.** What about the EC50 [7] of the same binder?
**A.** 0.3 nM

**Q.** And the EC50 [8]?
**A.** 0.8 nM

**Q.** What about the “EC50 (read off the curve)” value (cynomolgus CD94 [9]) of the same binder?
**A.** ~0.7 nM

**Q.** What about the EC50 (human CD94 [10]) of the same binder?
**A.** 0.6 nM

**Q.** What about the EC50 [11] of the same binder?
**A.** 1.8 nM

B3: anti-CD94 antibody 18H3 (antibody, V domains shown)
VH: EVQLVQSGAEVKKPGESLKISCKGSGYRFTSYWIGWVRQMPGKGLEWMGIIYPGDSDTRYSPSFQGQVIISADKSITTAFLQWSSLKASDTAMYYCARPFDYGGSPGYFDYWGQGTLVTVSS
VL: DIQMTQSPSTLSASVGDRVTITCRASQSIRSWLAWYQQKPGKAPKLLIYKASSLESGVPSRFSGSGSGTEFTLTISSLQPDDFATYYCQQYNTFWTFGQGTKVEIK
notes: Human variable domains from ATX-Gx Alloy transgenic mice; Screened as hybridoma supernatant; also called human IgG1 18H3
**Q.** With B3 as the binder, how does the “EC50 (read off the curve)” value (human CD94 [12]) read?
**A.** ~3 nM

**Q.** And the HLA-E blocking (human CD94 [13])?
**A.** 0%

**Q.** And the EC50 (human CD94 [14])?
**A.** 2.6 nM

**Q.** What about the “EC50 (read off the curve)” value (human CD94 [15]) of the same binder?
**A.** ~0.8 nM
